The target in this test is ecCTLA-4 (Escherichia coli-expressed monomeric form of CTLA-4, extracellular region vl-Ig 1-124, cysteine 122 mutated to serine) (UniProt P16410). Nature of the test: SEC; monomeric ecCTLA-4 concentrated to 10 mg/ml, incubated 24 h at room temperature, then analytical size-exclusion chromatography with calibration curve; monomer to strand-swapped dimer and larger species. Background: SEC sorts molecules by how far they enter the pores of the column.

Drawing on article PMC2954335, this text covers stoichiometry N for one substance.

Broadly, the stoichiometry N is the number of molecules, sites or subunits per partner or assembly.

“ecCTLA-4 (Escherichia coli-expressed monomeric form of CTLA-4, extracellular region vl-Ig 1-124, cysteine 122 mutated to serine) (from UniProt P16410 36-159) (domain or fragment)”: the stoichiometry N was > 2.
